These results are taken from US20200048350A1 (INHIBRX BIOSCIENCES, published 2020).

In this experiment the target is T1, B7H3 (UniProt Q5ZPR3 29-534, limits assumed).
T1 construct: whole, on cells; also called CD276
T1 sequence (looked up): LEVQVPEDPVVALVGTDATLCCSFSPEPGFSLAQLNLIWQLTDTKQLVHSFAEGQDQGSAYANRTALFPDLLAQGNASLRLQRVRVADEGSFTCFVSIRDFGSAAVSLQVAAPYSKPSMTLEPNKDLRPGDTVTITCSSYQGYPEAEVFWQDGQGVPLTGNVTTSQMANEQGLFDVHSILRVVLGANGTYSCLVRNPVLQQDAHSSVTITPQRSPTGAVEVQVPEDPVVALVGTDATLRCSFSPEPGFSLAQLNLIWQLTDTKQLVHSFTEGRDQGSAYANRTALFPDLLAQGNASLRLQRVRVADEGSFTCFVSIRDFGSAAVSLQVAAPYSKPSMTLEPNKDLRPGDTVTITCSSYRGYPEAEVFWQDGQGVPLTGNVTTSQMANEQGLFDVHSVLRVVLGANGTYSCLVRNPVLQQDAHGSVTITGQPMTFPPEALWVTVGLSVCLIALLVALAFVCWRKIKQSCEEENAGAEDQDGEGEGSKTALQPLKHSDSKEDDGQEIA
Put plainly: flow cytometry on A375 cells.

B1: DART-Fc B7H3xCD3 (bispecific antibody)
chain 1: DIQLTQSPSFLSASVGDRVTITCKASQNVDTNVAWYQQKPGKAPKALIYSASYRYSGVPSRFSGSGSGTDFTLTISSLQPEDFATYYCQQYNNYPFTFGQGTKLEIKGGGSGGGGEVQLVESGGGLVQPGGSLRLSCAASGFTFSTYAMNWVRQAPGKGLEWVGRIRSKYNNYATYYADSVKDRFTISRDDSKNSLYLQMNSLKTEDTAVYYCVRHGNFGNSYVSWFAYWGQGTLVTVSSGGCGGGEVAALEKEVAALEKEVAALEKEVAALEKGGGDKTHTCPPCPAPEAAGGPSVFLFPPKPKDTLMISRTPEVTCVVVDVSHEDPEVKFNWYVDGVEVHNAKTKPREEQYNSTYRVVSVLTVLHQDWLNGKEYKCKVSNKALPAPIEKTISKAKGQPREPQVYTLPPSREEMTKNQVSLWCLVKGFYPSDIAVEWESNGQPENNYKTTPPVLDSDGSFFLYSKLTVDKSRWQQGNVFSCSVMHEALHNHYTQKSLSLSPGK
chain 2: QAVVTQEPSLTVSPGGTVTLTCRSSTGAVTTSNYANWVQQKPGQAPRGLIGGTNKRAPWTPARFSGSLLGGKAALTITGAQAEDEADYYCALWYSNLWVFGGGTKLTVLGGGGSGGGGEVQLVESGGGLVQPGGSLRLSCAASGFTFSSFGMHWVRQAPGKGLEWVAYISSDSSAIYYADTVKGRFTISRDNAKNSLYLQMNSLRDEDTAVYYCGRGRENIYYGSRLDYWGQGTTVTVSSGGCGGGKVAALKEKVAALKEKVAALKEKVAALKE
chain 3: not shown
notes: Comparator; also called DART-Fc format B7H3xCD3; B7-H3 x CD3 Bispecific DART-A Diabody
As for B1, the binding result is on record as “binds”.
